# Data as given in paper PMC7351111, “WRNIP1 Is Recruited to DNA Interstrand Crosslinks and Promotes Repair” (Cell Reports, 2020).
# B1: Flag-HA-WRNIP1 (purified from Sf9 cells) (natural protein, human, UniProt Q96S55 1-665, looked up)
# chain: MEVSGPEDDPFLSQLHQVQCPVCQQMMPAAHINSHLDRCLLLHPAGHAEPAAGSHRAGERAKGPSPPGAKRRRLSESSALKQPATPTAAESSEGEGEEGDDGGETESRESYDAPPTPSGARLIPDFPVARSSSPGRKGSGKRPAAAAAAGSASPRSWDEAEAQEEEEAVGDGDGDGDADADGEDDPGHWDADAAEAATAFGASGGGRPHPRALAAEEIRQMLQGKPLADTMRPDTLQDYFGQSKAVGQDTLLRSLLETNEIPSLILWGPPGCGKTTLAHIIASNSKKHSIRFVTLSATNAKTNDVRDVIKQAQNEKSFFKRKTILFIDEIHRFNKSQQDTFLPHVECGTITLIGATTENPSFQVNAALLSRCRVIVLEKLPVEAMVTILMRAINSLGIHVLDSSRPTDPLSHSSNSSSEPAMFIEDKAVDTLAYLSDGDARAGLNGLQLAVLARLSSRKMFCKKSGQSYSPSRVLITENDVKEGLQRSHILYDRAGEEHYNCISALHKSMRGSDQNASLYWLARMLEGGEDPLYVARRLVRFASEDIGLADPSALTQAVAAYQGCHFIGMPECEVLLAQCVVYFARAPKSIEVYSAYNNVKACLRNHQGPLPPVPLHLRNAPTRLMKDLGYGKGYKYNPMYSEPVDQEYLPEELRGVDFFKQRRC
# notes: WRNIP1, human; Purification as in Liang et al., 2016; also called wild-type WRNIP1; source: Sf9, purified
# Target: T1, His-ubiquitin (UniProt P0CG48 1-76)
# T1 construct: ubiquitin (monomer); also called recombinant ubiquitin; source: recombinant
# Experiment: pull-down; 2 ug Flag-HA-WRNIP1 or Flag-HA-WRNIP1-19R with 2 ug His-ubiquitin; 300 mM KCl, 40 mM Tris-HCl pH 8.0, 100 ug/ml BSA; 30 C for 1 h; captured on anti-HA Sepharose at 4 C; immunoblot against WRNIP1 and ubiquitin
# Conditions: both partners purified
binder,measurement,value
B1,binding result,binds
